Experiment [1] deals with T1, PSMA Fab (biotinylated (site not stated)).
T1 construct: also called Anti-PSMA Fab; 006 PSMA Fab
Briefly: clonal phage ELISA on captured PSMA Fab pre-incubated with PSMA antigen (competitor: PSMA), anti-M13-HRP detection. Background: An ELISA detects its analyte on a solid surface through an enzyme-linked reagent.

For experiment [2], the target named is T1, PSMA Fab. Briefly: clonal phage ELISA on biotinylated PSMA Fab captured on neutravidin plates, blocking buffer alone, anti-M13-HRP detection.
Method: (§1) Clonal phage were harvested as crude supernatants and screened via standard ELISAs. […] Prior to the addition of clonal phage. wells were incubated with blocking buffer and PSMA antigen or blocking buffer alone. Without washing or aspirating, clonal phage supernatants were then added to the wells and incubated for a short time. Wells were then washed followed by detection of bound phage using a horse radish conjugated anti-M13 antibody.
Experiment [3] has as its target T2, PSMA Fab (SEQ ID NOs: 19, 20).
T2 construct: Biotinylated and captured on neutravidin coated plates in the phage ELISA; also called Anti-PSMA Fab; 006 PSMA Fab
Briefly: phage ELISA; biotinylated PSMA Fab on neutravidin plate, anti-M13 HRP; no PSMA antigen.
Method: as §1

Experiment [4] shares this target. Briefly: phage ELISA; biotinylated PSMA Fab on neutravidin plate, anti-M13 HRP; competitor PSMA antigen pre-incubated.
Method: as §1

Where no end group is shown, it is not given here.

B1: Phage-2578 (peptide)
peptide: LQEWCIPPWMCIKS
notes: Clonal phage displaying the peptide, tested as crude supernatant; also called peptide-180 library clone; not shown: fused to the pIII filament protein of the bacteriophage
For the molecule B1, the “phage binding ELISA signal in presence of PSMA” value in the experiment with PSMA Fab [1] turned out to be 0.0797. In addition, in the experiment with PSMA Fab [2], the “phage binding ELISA signal” value was determined as 1.09.

B2: Phage-2574 (peptide)
peptide: TFKWCTPAWMCAGF
modifications: cysteine pairing not given here; also: fused to phage pIII, linker and fusion site not given here
notes: as for B1
Take B2: in the experiment with PSMA Fab [1], the “phage binding ELISA signal in presence of PSMA” value was 0.0801. The “phage binding ELISA signal” value with PSMA Fab [2] turned out to be 1.09.

B3: Phage-2567 (peptide)
peptide: EPKWCTPPWMCENF
On to B3, for which the “phage binding ELISA signal” value is 1.11 in experiment [3] and 0.0576 in experiment [4].

B4: Phage-2576 (peptide)
peptide: QEKMCIPAWMCSEY
notes: as for B1
Turning to B4, the “phage binding ELISA signal in presence of PSMA” value with PSMA Fab [1] turned out to be 0.0615. Further, in the experiment with PSMA Fab [2], the “phage binding ELISA signal” value turned out to be 1.09.

B5: Phage-2579 (peptide)
peptide: GPKWCTPPWMCWEF
notes: as for B1
Take B5: the “phage binding ELISA signal in presence of PSMA” value with PSMA Fab [1] was determined as 0.331. In the experiment with PSMA Fab [2], the “phage binding ELISA signal” value was found to be 1.08.

B6: Phage-2570 (peptide)
peptide: EGPWCIPEWMCQNS
For the molecule B6, the “phage binding ELISA signal” value in experiment [3] worked out at 1.1; in experiment [4] it was 0.0766.

B7: Phage-2575 (peptide)
peptide: EFKWCTPEWMCAMA
modifications: cysteine pairing not given here; also: fused to phage pIII, linker and fusion site not given here
notes: as for B1
As to B7, the “phage binding ELISA signal in presence of PSMA” value in the experiment with PSMA Fab [1] came out at 0.0845. In addition, in the experiment with PSMA Fab [2], the “phage binding ELISA signal” value stood at 1.09.

B8: Phage-2571 (peptide)
peptide: IAKWCIPSWMCAGI
modifications: cysteine pairing not given here; also: fused to phage pIII, linker and fusion site not given here
As to B8, the “phage binding ELISA signal” value came out at 1.1 in experiment [3] and 0.139 in experiment [4].

B9: Phage-2573 (peptide)
peptide: VDTWCTPPWMCWGL
modifications: cysteine pairing not given here; also: fused to phage pIII, linker and fusion site not given here
notes: also called peptide-180 library clone; not shown: fused to the pIII filament protein of the bacteriophage
For the molecule B9, in the experiment with PSMA Fab [1], the “phage binding ELISA signal in presence of PSMA” value amounted to 0.0695. The “phage binding ELISA signal” value in the experiment with PSMA Fab [2] is 1.09.

B10: Phage-2569 (peptide)
peptide: AIHWCTPPWMCEPQ
For the molecule B10, the “phage binding ELISA signal” value in experiment [3] worked out at 1.1; in experiment [4], 0.0777.

B11: Phage-2580 (peptide)
peptide: GVKWCTPAWMCEWT
notes: as for B1
Turning to B11, the “phage binding ELISA signal in presence of PSMA” value with PSMA Fab [1] came to 0.0707. For the same molecule, in the experiment with PSMA Fab [2], the “phage binding ELISA signal” value is 1.08.

B12: Phage-2572 (peptide)
peptide: QYNWCVPAWMCEIS
Regarding B12, the “phage binding ELISA signal” value came to 1.1 in experiment [3] and 0.0848 in experiment [4].

B13: Phage-2566 (peptide)
peptide: VDPWCKPAWMCLGM
In the case of B13, the “phage binding ELISA signal” value in experiment [3] was found to be 1.11; in experiment [4], 0.0597.

B14: Phage-2577 (peptide)
peptide: LTNWCTPSWMCYGL
notes: as for B1
Turning to B14, in the experiment with PSMA Fab [1], the “phage binding ELISA signal in presence of PSMA” value stood at 0.0817. In the experiment with PSMA Fab [2], the “phage binding ELISA signal” value was 1.09.

B15: Phage-2565 (peptide)
peptide: VEKWCIPEWMCWTV
As to B15, the “phage binding ELISA signal” value in experiment [3] turned out to be 1.11; in experiment [4], 0.0709.

B16: Phage-2568 (peptide)
peptide: YDVLCKPDWMCNWN
On to B16, for which the entries for the “phage binding ELISA signal” value in experiment [3] and in experiment [4] were 1.11 and 0.0861, respectively.

The record behind these values is US20260242478A1 (published 2026).
